Results on 14 molecules are retold here after PMC2777438.

Where two headings read alike, the source gives them in different places.

Data set [1] deals with T1, ArtA (Staphylococcus aureus plasmid pSK41, UniProt Q52270 1-62).
T1 sequence: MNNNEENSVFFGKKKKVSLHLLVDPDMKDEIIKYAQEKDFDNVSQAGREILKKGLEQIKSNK
Kind of data set: fluorescence polarization.

Data set [2] addresses T2, Δ14ArtA (Staphylococcus aureus plasmid pSK41, UniProt Q52270 15-62, del1-14).
T2 chain: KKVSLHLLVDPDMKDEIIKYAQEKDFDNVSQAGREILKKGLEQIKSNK
The data set is described as follows: fluorescence polarization. (Polarisation of emitted light reports the rotation of a fluorescent probe.)

Data set [3] concerns the target T1, ArtA. Kind of data set: fluorescence polarization. The source holds these as a separate data set.
Data set [4] concerns the target T1, ArtA. Kind of data set: fluorescence polarization. This is another data set of the same source.
Data set [5] addresses T1, ArtA. The data set is described as follows: fluorescence polarization. The source holds these as a separate data set.
Data set [6] deals with T1, ArtA. The data set is described as follows: crystal structure.
Data set [7] deals with T1, ArtA. Kind of data set: fluorescence polarization. The source holds these as a separate data set.

B1: Porf538 Mutant 2 (dsDNA)
DNA 1: ACACGACATGAAATTAAACGT
DNA 2: ACGTTTAATTTCATGTCGTGT
As for B1, the binding result in data set [1] and in data set [2] was “no binding” in each case.

B2: PtraA operator (dsDNA)
DNA 1: TTACATGACATGACATGTAATAC
DNA 2: GTATTACATGTCATGTCATGTAA
On to B2, for which the dissociation constant Kd in data set [1] amounted to 42 ± 9 nM; in data set [2], 52 ± 6 nM.

B3: Porf259 11-mer (dsDNA)
DNA 1: ACATGACAGGT
DNA 2: ACCTGTCATGT
In data set [1], B3 yielded a Kd of 790 ± 34 nM. Further, the binding result in data set [2] is “no binding”.

B4: PartA operator (dsDNA)
DNA 1: TTGTCATGACATGTCATGTGTAA
DNA 2: TTACACATGACATGTCATGACAA
Regarding B4, the Kd came out at 28 ± 8 nM in data set [1] and 41 ± 9 nM in data set [2].

B5: Porf538 left half site (dsDNA)
DNA 1: ACACGACATCA
DNA 2: TGATGTCGTGT
In the case of B5, the binding result in data set [1] and in data set [2] was “no binding” in each case.

B6: 22-mer operator (dsDNA)
DNA 1: CAAACATGATATGACATGTAAT
DNA 2: ATTACATGTCATATCATGTTTG
As for B6, the figures for the dissociation constant Kd in data set [1] and in data set [2] were 62 ± 6 nM and 58 ± 5 nM, respectively.

B7: Porf538 Mutant 1 (dsDNA)
DNA 1: ACACTAAATGAAATGACACGT
DNA 2: ACGTGTCATTTCATTTAGTGT
On to B7, for which the binding result in data set [1] and in data set [2] was “no binding” in each case.

B8: PtraL operator (dsDNA)
DNA 1: TGCATTACATGACATGACATGTAAT
DNA 2: ATTACATGTCATGTCATGTAATGCA
In the case of B8, the Kd worked out at 23 ± 5 nM in data set [1] and 39 ± 5 nM in data set [2].

B9: 16-mer consensus (dsDNA)
DNA 1: ACATGACATGACATGT
DNA 2: ACATGTCATGTCATGT
With B9, the results for the Kd in data set [1] and in data set [2] were 60 ± 3 nM and 58 ± 3 nM, respectively.

B10: Porf538 21-mer (dsDNA)
DNA 1: ACACGACATGAAATGACACGT
DNA 2: ACGTGTCATTTCATGTCGTGT
Regarding B10, the Kd in data set [3] amounted to 60 ± 10 nM; in data set [4], 42 ± 7 nM; in data set [5], 58 ± 5 nM. The binding result in data set [2] is “no binding”.

B11: 11-mer consensus (dsDNA)
DNA 1: ACATGACATGT
DNA 2: ACATGTCATGT
As to B11, the Kd was 127 nM in data set [1] and 222 ± 8 nM in data set [2].

B12: 12-mer consensus (crystal) (dsDNA)
DNA 1: GACATGACATGT
DNA 2: CACATGTCATGT
modifications: 5-bromouracil at thymines (MAD DNA only)
As for B12, the binding result in data set [6] is listed as “binds”.

B13: Porf259 24-mer (dsDNA)
DNA 1: TAAACATTGCATAACATGACAGGT
DNA 2: ACCTGTCATGTTATGCAATGTTTA
Regarding B13, the binding result in data set [2] and in data set [7] was “no binding” each time.

B14: Porf538 right half site (dsDNA)
DNA 1: AAATGACACGT
DNA 2: ACGTGTCATTT
Turning to B14, the binding result in data set [1] and in data set [2] was “no binding” each time.

As a reminder, the Kd is the constant that tells how readily two partners part at equilibrium. A high value points to a looser complex.
